Target: IGF2BP1-Flag (recombinant);RBRP-Flag WT (Homo sapiens?;Homo sapiens, UniProt Q9NZI8;C0HM01 1-577;1-71, |)
Experiment: EMSA; RBRP WT increases IGF2BP1 binding; Pull-down: 1 nmol biotin-RNA on streptavidin-agarose, nuclear extract, 30 C 30 min, immunoblot. EMSA: LightShift kit, 20 pmol RNA, 6 ug IGF2BP1-Flag, 2 ug RBRP, room temperature 30 min, then 0.2% glutaraldehyde (1 ul) on ice 15 min, 6% TBE gel; salt and binding pH not stated
Settings: protein: recombinant;recombinant; label: biotin 5'; single strand

Sequence of IGF2BP1-Flag (recombinant);RBRP-Flag WT (Q9NZI8 whole entry, chain 1 of 2): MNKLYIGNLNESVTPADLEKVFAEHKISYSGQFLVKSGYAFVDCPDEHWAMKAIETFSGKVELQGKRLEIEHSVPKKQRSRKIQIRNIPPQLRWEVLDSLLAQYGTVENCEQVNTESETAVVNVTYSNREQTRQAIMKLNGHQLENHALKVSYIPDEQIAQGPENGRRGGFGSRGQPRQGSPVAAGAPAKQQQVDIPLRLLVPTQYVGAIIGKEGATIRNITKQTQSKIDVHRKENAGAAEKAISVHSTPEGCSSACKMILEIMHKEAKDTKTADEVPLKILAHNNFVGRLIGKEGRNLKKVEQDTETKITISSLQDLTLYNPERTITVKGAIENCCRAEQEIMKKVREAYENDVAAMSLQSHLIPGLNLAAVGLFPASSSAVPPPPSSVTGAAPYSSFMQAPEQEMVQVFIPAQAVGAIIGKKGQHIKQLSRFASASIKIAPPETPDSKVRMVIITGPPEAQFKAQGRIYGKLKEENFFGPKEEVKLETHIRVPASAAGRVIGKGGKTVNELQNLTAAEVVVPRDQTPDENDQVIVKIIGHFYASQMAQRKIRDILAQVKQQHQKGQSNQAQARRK
Sequence of IGF2BP1-Flag (recombinant);RBRP-Flag WT (C0HM01 whole entry, chain 2 of 2): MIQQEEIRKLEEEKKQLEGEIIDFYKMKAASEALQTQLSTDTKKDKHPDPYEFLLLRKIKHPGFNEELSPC

Question: Does CGUCUCGGACUCGGACUGCU (ssRNA, m6A at 9 and 15) [ss-m6A] bind?
Answer: binds

— publication PMC7125119, “An oncopeptide regulates m6A recognition by the m6A reader IGF2BP1 and tumorigenesis”
